Assay results from patent US20150064184A1 (ARMAGEN TECHNOLOGIES, published 2015).

Legend:
[1] = target: T1, human insulin receptor extracellular domain (HIR ECD) (human, UniProt P06213 28-956, limits assumed); test: ELISA, HIR ECD plated, detected with biotinylated anti-human IgG
T1 construct: extracellular domain; The ECD was plated on 96-well dishes for the ELISA

[2] = target: T1, human insulin receptor extracellular …; test: ELISA, HIR ECD plated; normalised for a MW of 150 kDa
Protocol: (§1) The affinity of the fusion protein for the HIR extracellular domain (ECD) was determined with an ELISA. CHO cells permanently transfected with the HIR ECD were grown in serum free media (SFM), and the HIR ECD was purified with a wheat germ agglutinin affinity column, as previously described in Coloma et al. (2000) Pharm Res, 17:266-274. The HIR ECD was plated on Nunc-Maxisorb 96 well dishes and the binding of the HIR Ab, or the HIR Ab-ASA fusion protein, to the HIR ECD was detected with a biotinylated goat anti-human IgG (H+L) secondary antibody, followed by avidin and biotinylated peroxidase (Vector Labs, Burlingame, Calif.). […] The MW of the HIR Ab is 150 kDa, and the MW of the HIR Ab-ASA fusion protein is 288 kDa.

[3] = target: T1, human insulin receptor extracellular …; test: ELISA, HIR ECD plated on Nunc-Maxisorb wells, detected with biotinylated anti-human IgG
Protocol: as §1

[4] = target: T1, human insulin receptor extracellular …; test: ELISA, HIR ECD plated (second experiment)
[5] = target: T1, human insulin receptor extracellular …; test: ELISA, HIR ECD plated; normalised for a MW of 288 kDa
Protocol: as §1

EC50 [1] [nM] | EC50 [2] [nM] | EC50 [3] [µg/mL] | EC50 [4] [nM] | EC50 [5] [nM] | Binder
0.77 | 0.23 | 0.035 | 0.25 |  | chimeric HIRMAb (chimeric monoclonal antibody against the human insulin receptor) (antibody, human IgG1, kappa, MW 150 kDa; also called HIR Ab; chimeric HIR Ab) heavy: not shown light: DIQMTQSPSSLSASLGERVSLTCRASQDIGGNLYWLQQGPDGTIKRLIYATSSLDSGVPKRFSGSRSGSDYSLTISSLESEDFVDYYCLQYSSSPWTFGGGTKMEIKRTVAAPSVFIFPPSDEQLKSGTASVVCLLNNFYPREAKVQWKVDNALQSGNSQESVTEQDSKDSTYSLSSTLTLSKADYEKHKVYACEVTHQGLSSPVTKSFNRGEC
 |  | 0.106 |  | 0.34 | HIRMAb-ASA fusion protein (HIR Ab fused at the carboxyl terminus of each heavy chain to mature human arylsulfatase A) (antibody, human IgG1, kappa, Cys-515 of SEQ ID NO 10 undergoes post-translational conversion to formylglycine (inferred by the filing from retained enzyme activity), Antibody-enzyme fusion made in CHO cells and purified on protein A. Hetero-tetramer with an estimated MW of 288 kDa; also called HIR Ab-ASA fusion protein; HIR Ab-ASA fusion antibody) heavy: not shown light: DIQMTQSPSSLSASLGERVSLTCRASQDIGGNLYWLQQGPDGTIKRLIYATSSLDSGVPKRFSGSRSGSDYSLTISSLESEDFVDYYCLQYSSSPWTFGGGTKMEIKRTVAAPSVFIFPPSDEQLKSGTASVVCLLNNFYPREAKVQWKVDNALQSGNSQESVTEQDSKDSTYSLSSTLTLSKADYEKHKVYACEVTHQGLSSPVTKSFNRGEC
0.81 |  |  |  |  | HIR Ab-GUSB fusion protein (human GUSB fused to the carboxyl terminus of the HIR Ab heavy chain) (antibody, human IgG1, kappa, range 23-633; also called HIRMAb-GUSB fusion protein; pCD-HC-GUSB plus pCD-LC product) heavy: not shown light: DIQMTQSPSSLSASLGERVSLTCRASQDIGGNLYWLQQGPDGTIKRLIYATSSLDSGVPKRFSGSRSGSDYSLTISSLESEDFVDYYCLQYSSSPWTFGGGTKMEIKRTVAAPSVFIFPPSDEQLKSGTASVVCLLNNFYPREAKVQWKVDNALQSGNSQESVTEQDSKDSTYSLSSTLTLSKADYEKHKVYACEVTHQGLSSPVTKSFNRGEC
